Experimental data taken from paper PMC9728385.

Target: TtCST WT (Ctc1-Stn1-Ten1, co-expressed with p50) (Tetrahymena, UniProt A0PGB2;Q6JXI5;D2CVN7;D2CVN8 1-622;1-373;1-164;1-422)
Test: EMSA

Sequence of TtCST WT (Ctc1-Stn1-Ten1, co-expressed with p50) (A0PGB2 whole entry, chain 1 of 4): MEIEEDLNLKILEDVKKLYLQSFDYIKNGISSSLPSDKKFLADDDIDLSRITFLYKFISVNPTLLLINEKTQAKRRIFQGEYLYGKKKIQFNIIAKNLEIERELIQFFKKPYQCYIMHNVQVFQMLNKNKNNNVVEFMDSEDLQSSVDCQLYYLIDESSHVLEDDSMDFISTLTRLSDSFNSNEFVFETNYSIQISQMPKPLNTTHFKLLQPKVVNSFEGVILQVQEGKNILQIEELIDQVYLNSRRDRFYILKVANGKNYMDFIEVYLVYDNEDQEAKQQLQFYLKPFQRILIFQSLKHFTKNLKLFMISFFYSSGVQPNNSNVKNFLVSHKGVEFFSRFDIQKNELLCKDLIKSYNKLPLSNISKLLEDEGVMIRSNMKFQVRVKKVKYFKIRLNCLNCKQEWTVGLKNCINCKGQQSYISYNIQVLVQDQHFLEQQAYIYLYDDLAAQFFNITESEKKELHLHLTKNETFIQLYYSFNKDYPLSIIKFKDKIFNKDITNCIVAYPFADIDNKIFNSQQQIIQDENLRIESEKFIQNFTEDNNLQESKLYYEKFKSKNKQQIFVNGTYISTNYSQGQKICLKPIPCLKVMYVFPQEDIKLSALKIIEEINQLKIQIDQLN
Sequence of TtCST WT (Ctc1-Stn1-Ten1, co-expressed with p50) (Q6JXI5 whole entry, chain 2 of 4): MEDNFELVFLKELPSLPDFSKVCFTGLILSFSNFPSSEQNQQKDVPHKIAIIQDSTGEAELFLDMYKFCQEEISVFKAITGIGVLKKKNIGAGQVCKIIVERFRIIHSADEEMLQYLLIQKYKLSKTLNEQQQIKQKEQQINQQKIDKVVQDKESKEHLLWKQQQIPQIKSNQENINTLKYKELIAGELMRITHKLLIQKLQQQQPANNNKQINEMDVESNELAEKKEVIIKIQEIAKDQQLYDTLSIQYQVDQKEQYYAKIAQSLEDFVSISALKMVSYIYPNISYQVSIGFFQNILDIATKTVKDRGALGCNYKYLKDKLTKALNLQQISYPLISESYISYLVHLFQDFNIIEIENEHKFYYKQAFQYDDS
Sequence of TtCST WT (Ctc1-Stn1-Ten1, co-expressed with p50) (D2CVN7 whole entry, chain 3 of 4): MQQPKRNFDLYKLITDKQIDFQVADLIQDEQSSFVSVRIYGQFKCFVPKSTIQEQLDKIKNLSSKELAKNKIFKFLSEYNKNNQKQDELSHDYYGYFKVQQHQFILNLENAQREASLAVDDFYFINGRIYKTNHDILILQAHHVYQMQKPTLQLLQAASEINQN
Sequence of TtCST WT (Ctc1-Stn1-Ten1, co-expressed with p50) (D2CVN8 whole entry, chain 4 of 4): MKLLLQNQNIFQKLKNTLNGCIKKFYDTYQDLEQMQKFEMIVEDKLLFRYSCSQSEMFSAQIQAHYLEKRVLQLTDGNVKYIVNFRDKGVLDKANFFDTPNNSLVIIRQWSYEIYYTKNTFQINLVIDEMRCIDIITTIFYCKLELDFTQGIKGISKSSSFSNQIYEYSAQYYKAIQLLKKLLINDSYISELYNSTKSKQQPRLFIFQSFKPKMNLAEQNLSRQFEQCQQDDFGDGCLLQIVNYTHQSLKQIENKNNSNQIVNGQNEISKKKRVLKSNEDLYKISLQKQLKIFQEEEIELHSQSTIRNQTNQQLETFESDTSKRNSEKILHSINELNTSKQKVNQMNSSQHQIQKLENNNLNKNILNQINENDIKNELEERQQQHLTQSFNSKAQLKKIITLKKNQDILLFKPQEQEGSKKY

B1: d(GTTGGG)5 (ssDNA)
DNA: GTTGGGGTTGGGGTTGGGGTTGGGGTTGGG
  Kd: 180 nM
